Results: patent US7966133B2, “Method of identifying a potential substrates of an O-methyltransferase” (The Salk Institute for Biological Studies, priority 2000, dated 2011)
“Also recorded” adds a separate entry of the source.

Assays:
[1] = aqueous solution; cited from earlier work
nod genes = settings: among compounds released from alfalfa roots; via nodD1 and nodD2; cited from earlier work
IOMT = test: Qualitative enzyme activity assay, IOMT (14C-SAM, TLC autoradiography); format: biochemical, Medicago sativa L; settings: expressed in E. coli
ChOMT = test: Qualitative enzyme activity assay, ChOMT (14C-SAM, TLC autoradiography); format: biochemical, Medicago sativa L; settings: 20 μg protein, 500 μM 2′,4,4′-trihydroxychalcone, 500 μM 14C-SAM, 2 hr room temperature; FIG. 7A

Row | Molecule | methyltransferase activity of ChOMT His 278 mutants (ChOMT) | further results
1 | O=C1c2ccc(O)cc2OC(O)C1c1ccc(O)cc1 (centres unmarked) [2,7,4′-trihydroxyisoflavanone] | – | aqueous stability [1]: lack of aqueous stability; also recorded: unstable in aqueous solution
2 | COc1cc(O)ccc1C(=O)/C=C/c1ccc(O)cc1 [4,4′-dihydroxy-2′-methoxychalcone] | – | transcriptional activation of nod genes (nod genes): most efficient transcriptional activator
3 | IOMT: Isoflavone O-methyltransferase (SEQ ID NO:4) from Medicago sativa L, recombinant wild type (protein, listed as Medicago sativa) MASSINGRKPSEIFKAQALLYKHIYAFIDSMSLKWAVGMNIPNIIHNHGKPISLSNLVSILQVPSSKIGNVRRLMRYLAHNGFFEIITKEEESYALTVASELLVRGSDLCLAPMVECVLDPTLSGSYHELKKWIYEEDLTLFGVTLGSGFWDFLDKNPEYNTSFNDAMASDSKLINLALRDCDFVFDGLESIVDVGGGTGTTAKIICETFPKLKCIVFDRPQVVENLSGSNNLTYVGGDMFTSIPNADAVLLKYILHNWTDKDCLRILKKCKEAVTNDGKRGKVTIIDMVINEKKDENQVTQIKLLMDVNMACLNGKERNEEEWKKLFIEAGFQHYKISPLTGFLSLIEIYP | – | specific activity of recombinant IOMT (IOMT): comparable to published values
4 | H278L: ChOMT catalytic histidine mutant, His 278 to leucine (protein, listed as Medicago sativa) MGNSYITKEDNQISATSEQTEDSACLSAMVLTTNLVYPAVLNAAIDLNLFEIIAKATPPGAFMSPSEIASKLPASTQHSDLPNRLDRMLRLLASYSVLTSTTRTIEDGGAERVYGLSMVGKYLVPDESRGYLASFTTFLCYPALLQVWMNFKEAVVDEDIDLFKNVHGVTKYEFMGKDKKMNQIFNKSMVDVCATEMKRMLEIYTGFEGISTLVDVGGGSGRNLELIISKYPLIKGINFDLPQVIENAPPLSGIEHVGGDMFASVPQGDAMILKAVCLNWSDEKCIEFLSNCHKALSPNGKVIIVEFILPEEPNTSEESKLVSTLDNLMFITVGGRERTEKQYEKLSKLSGFSKFQVACRAFNSLGVMEFYK | completely eliminated methyltransferase activity | –
5 | H278K: ChOMT catalytic histidine mutant, His 278 to lysine (protein, listed as Medicago sativa) MGNSYITKEDNQISATSEQTEDSACLSAMVLTTNLVYPAVLNAAIDLNLFEIIAKATPPGAFMSPSEIASKLPASTQHSDLPNRLDRMLRLLASYSVLTSTTRTIEDGGAERVYGLSMVGKYLVPDESRGYLASFTTFLCYPALLQVWMNFKEAVVDEDIDLFKNVHGVTKYEFMGKDKKMNQIFNKSMVDVCATEMKRMLEIYTGFEGISTLVDVGGGSGRNLELIISKYPLIKGINFDLPQVIENAPPLSGIEHVGGDMFASVPQGDAMILKAVCKNWSDEKCIEFLSNCHKALSPNGKVIIVEFILPEEPNTSEESKLVSTLDNLMFITVGGRERTEKQYEKLSKLSGFSKFQVACRAFNSLGVMEFYK | completely eliminated methyltransferase activity | –
6 | H278N: ChOMT catalytic histidine mutant, His 278 to asparagine (protein, listed as Medicago sativa) MGNSYITKEDNQISATSEQTEDSACLSAMVLTTNLVYPAVLNAAIDLNLFEIIAKATPPGAFMSPSEIASKLPASTQHSDLPNRLDRMLRLLASYSVLTSTTRTIEDGGAERVYGLSMVGKYLVPDESRGYLASFTTFLCYPALLQVWMNFKEAVVDEDIDLFKNVHGVTKYEFMGKDKKMNQIFNKSMVDVCATEMKRMLEIYTGFEGISTLVDVGGGSGRNLELIISKYPLIKGINFDLPQVIENAPPLSGIEHVGGDMFASVPQGDAMILKAVCNNWSDEKCIEFLSNCHKALSPNGKVIIVEFILPEEPNTSEESKLVSTLDNLMFITVGGRERTEKQYEKLSKLSGFSKFQVACRAFNSLGVMEFYK | completely eliminated methyltransferase activity | –
7 | H278Q: ChOMT catalytic histidine mutant, His 278 to glutamine (protein, listed as Medicago sativa) MGNSYITKEDNQISATSEQTEDSACLSAMVLTTNLVYPAVLNAAIDLNLFEIIAKATPPGAFMSPSEIASKLPASTQHSDLPNRLDRMLRLLASYSVLTSTTRTIEDGGAERVYGLSMVGKYLVPDESRGYLASFTTFLCYPALLQVWMNFKEAVVDEDIDLFKNVHGVTKYEFMGKDKKMNQIFNKSMVDVCATEMKRMLEIYTGFEGISTLVDVGGGSGRNLELIISKYPLIKGINFDLPQVIENAPPLSGIEHVGGDMFASVPQGDAMILKAVCQNWSDEKCIEFLSNCHKALSPNGKVIIVEFILPEEPNTSEESKLVSTLDNLMFITVGGRERTEKQYEKLSKLSGFSKFQVACRAFNSLGVMEFYK | completely eliminated methyltransferase activity | –
8 | H278A: ChOMT catalytic histidine mutant, His 278 to alanine (protein, listed as Medicago sativa) MGNSYITKEDNQISATSEQTEDSACLSAMVLTTNLVYPAVLNAAIDLNLFEIIAKATPPGAFMSPSEIASKLPASTQHSDLPNRLDRMLRLLASYSVLTSTTRTIEDGGAERVYGLSMVGKYLVPDESRGYLASFTTFLCYPALLQVWMNFKEAVVDEDIDLFKNVHGVTKYEFMGKDKKMNQIFNKSMVDVCATEMKRMLEIYTGFEGISTLVDVGGGSGRNLELIISKYPLIKGINFDLPQVIENAPPLSGIEHVGGDMFASVPQGDAMILKAVCANWSDEKCIEFLSNCHKALSPNGKVIIVEFILPEEPNTSEESKLVSTLDNLMFITVGGRERTEKQYEKLSKLSGFSKFQVACRAFNSLGVMEFYK | completely eliminated methyltransferase activity | –
